Measured values as given in patent US20120270234A1, “DDR2 PROTEIN WITH ACTIVATED KINASE ACTIVITY AND PREPARATION METHOD THEREOF” (KOREA INSTITUTE OF SCIENCE AND TECHNOLOGY, priority 2003, published 2012).
“Also recorded” adds a separate entry of the source.

Assays:
sf9 cells = test: tyrosine phosphorylation by H2O2 processing of expressing insect cells, western blotting with phosphorylated tyrosine specific antibody; format: cell-based, Spodoptera frugoperda; conditions: 200 μM H2O2 for half of an hour; FIG. 2, FIG. 5
Procedure: The results shown in FIG. 5 were obtained by solely expressing the fused proteins, GST-DDR2 CKD, the GST-DDR1b CKD, the GST-CDK4 and the GST-CDK1, respectively, in insect cells; processing with 200 μM of H2O2 for half of an hour; purifying the respective expressed product using glutathione beads; performing the SDS-PAGE; and performing the western blotting test using an phosphorylated tyrosine specific antibody and coomassie staining.
The results shown in FIG. 5 have been obtained by solely expressing GST-DDR2 CKD, GST-DDR1b CKD, GST-CDK4 and GST-CDK1, respectively in sf9 cells; processing each expressed cells with H2O2 of 200 uM for half of an hour or not; and then purifying the GST tagged protein followed by a western blotting using a phosphorylated tyrosine specific antibody. The presence of a similar amount of each purified GST tagged protein was shown by CBB staining.
The recombinant baculoviruses having the GST-DDR2 CKD coding gene were transfected into sf9 insect cells, by setting MOU to 10 and the cells were cultured for 24 to 72 hours, to express the protein. […], at the concentration of 200 μM was added to the cultured cells. The cells were left for half of an hour, and collected. The collected cells were lysed and the GST-DDR2 CKD was purified from the expressed products, using the glutathione agarose bead column chromatography. The purified protein was subjected to an electrophoresis in 10% polyacrylamaid gel.
After completing the electrophoresis, the protein developed in the gel was transferred to nitrocellulose, and then subjected to a western blotting using a phosphorylated tyrosine specific antibody (Cell signaling Inc, USA), to measure the chemiluminescence signal using x-ray film. For the control, the chemical luminescence of the case without H2O2 processing was measured by the method as mentioned above.

shc protein = test: in vitro shc binding assay using HSC T6 cell lysate; design: species or system human
Source text: One of the characteristic features of tyrosine phosphorylated cytosolic domain of receptor tyrosine kinase is to recruit the signaling proteins such as shc protein. This complex formation between the cytosolic domain of receptor tyrosine kinase protein and signaling proteins such as shc is important for the cellular transmission of the activated receptor tyrosine kinase signal. It has been observed in HSC T6 liver stellate cells and fibroblast cells that shc, one of signaling protein containing PTB domain binds to activated DDR2 cytosolic domain. The present inventors examined whether the invented DDR2 cytosolic tyrosine kinase domain protein with induced tyrosine phosphorylation for example, by the method of co-expression with c-Src in sf 9 cells or with the mutation of tyrosine 740 to phenylalanine 740 can be used for in vitro shc binding assay. In FIG. 15, the purified GST-DDR2 cytosolic domain from sf 9 cells with and without Src coinfection were used for in vitro shc binding assay. Each protein was subject to autophosphorylation reaction at 30° C. for 15 min, and a mock-autophosphylation reaction as well where gamma-S-ATP was used instead of ATP in the reaction buffer before they were used for in vitro shc binding assay using HSC T6 cell lysate.
The purified GST-DDR2 CKD proteins without or with tyrosine phosphorylation by Src were subject to in vitro shc binding assay after autophosphorylation reaction or a mock-autophosphorylation reaction as described in materials and methods. The bound proteins on the glutathione bead were eluted by boiling in 1× lameli buffer. The presence of shc in the eluate was measured by western blotting using shc antibody and the accumulation of tyrosine phosphorylation at GST-DDR2 CKD proteins resulted from autophosphorylation was shown by western blotting using P-tyro antibody. The presence of an equal amount of GST-DDR2 CKD proteins in each eluate was confirmed by CBB staining. ‘Bead only’ means that no GST-DDR2 CKD protein was applied on glutathione bead as a control.
The same type of experiment was done as FIG. 15 using purified GST-DDR2 CKD phosphorylated by src and its mutant proteins of Y740F and Y736/740/741F.
As a source of shc protein, total lysate of HSC T6 cells was used. For the preparation of the lysate, 2×10^7 HSC T6 cells were harvested and lysed by sonication in 5 ml of lysis buffer consisting of 20 mM Tris-HCl (pH8.0), 0.1M NaCl, 5 mM DTT, 10 mM NaF, […], 0.02% IGE-PAL (Sigma) and a proteinase inhibitor cocktail pellet (Roche). The supernatant was obtained by centrifugation in 15,000 rpm for 10 min at 4° C. and used for the following shc binding assay. Various GST-DDR2 KD proteins bound to glutathione bead were obtained as described above. […]

c-Src tyrosine kinase = target: T1, c-Src tyrosine kinase (Mus musculus, UniProt P05480, P80A); test: tyrosine phosphorylation on co-expression with c-Src in insect cells, western blotting with phosphorylated tyrosine specific antibody; format: cell-based, Spodoptera frugiperda; conditions: glutathione bead purified, FIG. 2, FIG. 4
T1 construct: Full length human c-Src gene was per amplified from the vector of pUSE human O-Src wild (Upstate Biotechnology); host or cells: sf9 insect cells co-infected with two recombinant baculoviruses
Source text: The results shown in FIG. 4 were obtained by co-expressing a fused protein GST-DDR2 CKD, a fused protein (GST-DDR1b CKD) of the GST and the human DDR1b cytosolic tyrosine kinase domain, a fused protein (GST-Akt1) of the GST and the full-length mouse Akt1 kinase and a fused protein (GST-CDK4) of the GST and the full-length human CDK4 kinase with the c-Src protein without GST tagging in insect cells, respectively; purifying the respective expressed product using glutathione beads; performing SDS-PAGE; and performing the western blotting test using a phosphorylated tyrosine specific antibody and coomassie staining.
The results shown in FIG. 4 have been obtained by co-expressing the full-length c-Src protein together with the fused proteins, GST-DDR2 CKD, GST-DDR1b CKD, GST-Akt1 and GST-CDK4, respectively; in sf9 cells, then performing a western blotting test on each purified GST tagged protein using a phosphorylated tyrosine specific antibody. The presence of a similar amount of each purified GST tagged protein was shown by CBB staining.
GST tagged kinase defective DDR2 cytosolic domain (GST-kd-DDR2-CKD) with intact three tyrosines in the activation loop or with various phenylalanine mutations described in the text were co-expressed with Src in sf9 cells. GST tagged proteins were purified and the same amount of proteins estimated by CBB staining was used for western blotting using P-tyro antibody.
(§1) Phospho-tyrosine specific antibody was purchased from Cell Signaling Inc, USA. Specific antibodies to human c-Src, human c-Fyn, and she were obtained from SantaCruz, USA. Samples were boiled for 2 min in 1× lameli sample buffer, and loaded in 10% SDS-PAGE. Proteins were transferred to Immobilon-P membrane (Millipore) and blacked by 10% skim milk in TBS for an hour. The membrane was immunoblotted with antibodies for 2 hours and subsequently washed with 1×TBS five times. Then it was incubated with HRP conjugated secondary antibodies for an hour and protein bands were detected using chemiluminescence kit (Amersham).

c-Fyn tyrosine kinase = target: T2, c-Fyn tyrosine kinase (Homo sapiens, UniProt P06241); test: tyrosine phosphorylation on co-expression with c-Fyn in insect cells, western blotting with phosphorylated tyrosine specific antibody; format: cell-based; conditions: FIG. 2
T2 construct: Full length human c-Fyn gene was per amplified from the vector containing full length human c-Fyn purchased from Invitrogen, USA; host or cells: sf9 insect cells co-infected with two recombinant baculoviruses
T2 sequence (P06241 2-482 isoform P06241-3): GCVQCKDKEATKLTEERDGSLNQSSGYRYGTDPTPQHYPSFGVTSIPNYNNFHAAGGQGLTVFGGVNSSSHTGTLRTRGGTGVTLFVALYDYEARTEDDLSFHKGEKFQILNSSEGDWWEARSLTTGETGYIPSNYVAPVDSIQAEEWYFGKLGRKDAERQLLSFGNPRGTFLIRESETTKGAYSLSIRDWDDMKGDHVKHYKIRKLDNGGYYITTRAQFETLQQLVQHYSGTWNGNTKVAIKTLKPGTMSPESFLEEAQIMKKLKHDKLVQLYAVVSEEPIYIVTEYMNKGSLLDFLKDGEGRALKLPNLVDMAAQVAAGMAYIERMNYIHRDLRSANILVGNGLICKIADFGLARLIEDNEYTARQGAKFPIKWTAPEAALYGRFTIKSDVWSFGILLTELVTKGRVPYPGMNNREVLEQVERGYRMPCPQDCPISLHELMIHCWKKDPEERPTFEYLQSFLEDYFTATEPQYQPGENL
Source text: In order to check the expression of c-Src protein in the case of co-expressing the GST-DDR2 CKD and the c-Src (lane 2), a portion of lysate of the host cells is undergone a SDS-PAGE and then a western blotting using a c-Src protein specific antibody. Likewise in order to check the expression of c-Fyn protein in the case of co-expressing the GST-DDR2 CKD and the c-Fyn (lane 3), a portion of lysate of the host cells is undergone a SDS-PAGE and then a western blotting using a c-Fyn protein specific antibody.
The presence of equal amount of protein at each lane was estimated by coomassie brilliant blue (CBB) staining. The co-expression of c-Src or c-Fyn protein was confirmed by western blotting on aliquot of total cell lysate using human c-Src or c-Fyn specific antibody.
as §1

B1: GST-DDR2 CKD: fusion protein of glutathione S transferase and human DDR2 cytosolic tyrosine kinase domain, solely expressed in insect cells (protein)
chain: MTVSLSLPSDSSMFNNNRSSSPSEQGSNSTYDRIFPLRPDYQEPSRLIRKLPEFAPGEEESGCSGVVKPVQPSGPEGVPHYAEADIVNLQGVTGGNTYSVPAVTMDLLSGKDVAVEEFPRKLLTFKEKLGEGQFGEVHLCEVEGMEKFKDKDFALDVSANQPVLVAVKMLRADANKNARNDFLKEIKIMSRLKDPNIIHLLSVCITDDPLCMITEYMENGDLNQFLSRHEPPNSSSSDVRTVSYTNLKFMATQIASGMKYLSSLNFVHRDLATRNCLVGKNYTIKIADFGMSRNLYSGDYYRIQGRAVLPIRWMSWESILLGKFTTASDVWAFGVTLWETFTFCQEQPYSQLSDEQVIENTGEFFRDQGRQTYLPQPAICPDSVYKLMLSCWRRDTKNRPSFQEIHLLLLQQGDE
modifications: left off: a dimerising Fc or GST
notes: fusion protein of glutathione S transferase and human DDR2 cytosolic tyrosine kinase domain, solely expressed in insect cells
- tyrosine phosphorylation induced by H2O2 processing (sf9 cells): remarkably induced; also recorded: strongly induced
- shc binding after in vitro autophosphorylation reaction (shc protein; autophosphorylation at 30° C. for 15 min, FIG. 15, FIG. 16): failure to show an improved shc binding
- shc binding before in vitro autophosphorylation (shc protein; mock-autophosphorylation with gamma-S-ATP, FIG. 15): did not attract shc protein binding significantly
- tyrosine phosphorylation induced by co-expression with c-Src (c-Src tyrosine kinase): remarkably induced; also recorded: strongly induced
- tyrosine phosphorylation induced by co-expression with c-Fyn (c-Fyn tyrosine kinase): remarkably induced
